Results from the Human Domainome abundance scans (Beltran et al. 2025).
± gives the uncertainty stated by the source.

B1: Membrane-associated guanylate kinase, WW and PDZ domain-containing protein 2, residues 601 to 682; numbered along this chain, Q86UL8 (parent)
chain: AELMTLTIVKGAQGFGFTIADSPTGQRVKQILDIQGCPGLCEGDLIVEINQQNVQNLSHTEVVDILKDCPIGSETSLIIHRG
B2: Endonuclease CUE2, residues 9 to 47; numbered along this chain, P36075 (parent)
chain: HESKLSILMDMFPAISKSKLQVHLLENNNDLDLTIGLLL

Variants of: B1
Experiment: abundance fitness (aPCA) (normalised: wild type 0, dead -1); higher = more abundant; growth selection in yeast, the domain comes from the species named
Settings: Homo sapiens

Variant	abundance fitness
T5K	-0.024 ± 0.057
T5R	-0.167 ± 0.036
T5L	-0.101 ± 0.039
T5C	-0.142 ± 0.058
T5W	-0.208 ± 0.051
T5H	-0.139 ± 0.067
T5N	0.03 ± 0.066
V9I	-0.087 ± 0.08
V9F	-0.044 ± 0.064
V9W	-0.072 ± 0.037
V9R	-0.052 ± 0.03
V9G	-0.077 ± 0.027
V9Y	-0.039 ± 0.075
V9H	-0.222 ± 0.083
V9T	-0.011 ± 0.052
V9C	-0.12 ± 0.056
V9K	-0.128 ± 0.049
V9S	-0.102 ± 0.041
V9P	-0.135 ± 0.06
V9E	-0.088 ± 0.035
V9A	-0.082 ± 0.035
V9M	0.003 ± 0.053
V9L	-0.139 ± 0.039
V9Q	-0.071 ± 0.05
V9N	-0.207 ± 0.11
V9D	-0.184 ± 0.065

Variants of: B2
Experiment: as above
Settings: Saccharomyces cerevisiae (strain ATCC 204508 / S288c)

Variant	abundance fitness
HESKLSILMDMFPAISKSKLQVHLLENNNDLDLTIGKLL [L37K]	0.045 ± 0.083
HESKLSILMDMFPAISKSKLQVHLLENNNDLDLTIGMLL [L37M]	-0.042 ± 0.042
HESKLSILMDMFPAISKSKLQVHLLENNNDLDLTIGRLL [L37R]	0.081 ± 0.041
HESKLSILMDMFPAISKSKLQVHLLENNNDLDLTIGYLL [L37Y]	0.007 ± 0.054
HESKLSILMDMFPAISKSKLQVHLLENNNDLDLTIGQLL [L37Q]	-0.016 ± 0.055
HESKLSILMDMFPAISKSKLQVHLLENNNDLDLTIGSLL [L37S]	0.026 ± 0.04
HESKLSILMDMFPAISKSKLQVHLLENNNDLDLTIGVLL [L37V]	-0.054 ± 0.038
HESKLSILMDMFPAISKSKLQVHLLENNNDLDLTIGWLL [L37W]	-0.128 ± 0.047
HESKLSILMDMFPAISKSKLQVHLLENNNDLDLTIGPLL [L37P]	-0.099 ± 0.046
HESKLSILMDMFPAISKSKLQVHLLENNNDLDLTIGNLL [L37N]	-0.003 ± 0.075
HESKLSILMDMFPAISKSKLQVHLLENNNDLDLTIGTLL [L37T]	0.098 ± 0.048
HESKLSILMDMFPAISKSKLQVHLLENNNDLDLTIGLWL [L38W]	-1.02 ± 0.13
HESKLSILMDMFPAISKSKLQVHLLENNNDLDLTIGLRL [L38R]	-0.792 ± 0.06
HESKLSILMDMFPAISKSKLQVHLLENNNDLDLTIGLSL [L38S]	-0.768 ± 0.078
HESKLSILMDMFPAISKSKLQVHLLENNNDLDLTIGLAL [L38A]	-0.375 ± 0.054
HESKLSILMDMFPAISKSKLQVHLLENNNDLDLTIGLGL [L38G]	-0.557 ± 0.049
HESKLSILMDMFPAISKSKLQVHLLENNNDLDLTIGLNL [L38N]	-0.471 ± 0.25
HESKLSILMDMFPAISKSKLQVHLLENNNDLDLTIGLEL [L38E]	-0.568 ± 0.058
HESKLSILMDMFPAISKSKLQVHLLENNNDLDLTIGLKL [L38K]	-0.983 ± 0.11
HESKLSILMDMFPAISKSKLQVHLLENNNDLDLTIGLDL [L38D]	-0.1 ± 0.25
HESKLSILMDMFPAISKSKLQVHLLENNNDLDLTIGLVL [L38V]	-0.27 ± 0.053

Variant	abundance fitness
HESKLSILMDMFPAISKSKLQVHLLENNNDLDLTIGLTL [L38T]	-0.628 ± 0.12
HESKLSILMDMFPAISKSKLQVHLLENNNDLDLTIGLML [L38M]	-0.054 ± 0.074
HESKLSILMDMFPAISKSKLQVHLLENNNDLDLTIGLPL [L38P]	-0.497 ± 0.085
HESKLSILMDMFPAISKSKLQVHLLENNNDLDLTIGLCL [L38C]	-0.116 ± 0.064
HESKLSILMDMFPAISKSKLQVHLLENNNDLDLTIGLQL [L38Q]	-0.664 ± 0.12
HESKLSILMDMFPAISKSKLQVHLLENNNDLDLTIGLLV [L39V]	-0.046 ± 0.047
HESKLSILMDMFPAISKSKLQVHLLENNNDLDLTIGLLR [L39R]	0.276 ± 0.035
HESKLSILMDMFPAISKSKLQVHLLENNNDLDLTIGLLH [L39H]	-0.062 ± 0.2
HESKLSILMDMFPAISKSKLQVHLLENNNDLDLTIGLLN [L39N]	0.081 ± 0.078
HESKLSILMDMFPAISKSKLQVHLLENNNDLDLTIGLLP [L39P]	-0.199 ± 0.048
HESKLSILMDMFPAISKSKLQVHLLENNNDLDLTIGLLT [L39T]	0.122 ± 0.044
HESKLSILMDMFPAISKSKLQVHLLENNNDLDLTIGLLF [L39F]	-0.084 ± 0.11
HESKLSILMDMFPAISKSKLQVHLLENNNDLDLTIGLLK [L39K]	0.33 ± 0.094
HESKLSILMDMFPAISKSKLQVHLLENNNDLDLTIGLLE [L39E]	0.154 ± 0.05
HESKLSILMDMFPAISKSKLQVHLLENNNDLDLTIGLLW [L39W]	-0.066 ± 0.047
HESKLSILMDMFPAISKSKLQVHLLENNNDLDLTIGLLQ [L39Q]	0.132 ± 0.05
HESKLSILMDMFPAISKSKLQVHLLENNNDLDLTIGLLG [L39G]	0.122 ± 0.042
HESKLSILMDMFPAISKSKLQVHLLENNNDLDLTIGLLS [L39S]	0.1 ± 0.037
HESKLSILMDMFPAISKSKLQVHLLENNNDLDLTIGLLI [L39I]	-0.182 ± 0.13
HESKLSILMDMFPAISKSKLQVHLLENNNDLDLTIGLLM [L39M]	0.167 ± 0.057
